# Measurements: the Human Domainome abundance scans (Beltran et al. 2025)
# ± gives the uncertainty stated by the source.
# B1: Zinc finger MYM-type protein 6, residues 427 to 504; numbered along this chain, O95789 (parent)
# chain: KLKCQHCNHLFATKPELLFYKGKMFLFCGKNCSDEYKKKNKVVAMCDYCKLQKIIKETVRFSGVDKPFCSEVCKFLSA
# Variants of: B1
# Test: abundance fitness (aPCA) (normalised: wild type 0, dead -1); higher = more abundant; growth selection in yeast, the domain comes from the species named
# Settings: Homo sapiens
row,Variant,abundance fitness
1,C7P,-1.07 ± 0.11
2,C7N,-0.23 ± 0.12
3,C7I,-1.02 ± 0.48
4,C7M,-0.76 ± 0.11
5,C7T,-0.792 ± 0.089
6,D34S,-0.056 ± 0.041
7,D34W,-0.156 ± 0.035
8,D34P,-0.691 ± 0.084
9,D34V,-0.017 ± 0.032
10,D34N,-0.527 ± 0.28
11,M24E,0.111 ± 0.036
12,M24T,0.118 ± 0.046
13,M24C,-0.004 ± 0.041
14,M24I,0.19 ± 0.38
15,M24A,-0.083 ± 0.039
16,Y48N,-0.184 ± 0.21
17,Y48H,0.537 ± 0.18
18,Y48M,-0.65 ± 0.17
19,Y48E,-0.861 ± 0.28
20,Y48L,-0.496 ± 0.11
21,Y48V,-0.677 ± 0.12
22,V59P,-0.246 ± 0.15
23,V59R,-0.42 ± 0.084
24,V59E,-0.053 ± 0.13

row,Variant,abundance fitness
1,L18I,-0.159 ± 0.13
2,L18G,-0.033 ± 0.032
3,F11T,0.014 ± 0.039
4,F11W,-0.207 ± 0.033
5,F11V,0.031 ± 0.032
6,F11R,-0.198 ± 0.031
7,V43W,-0.416 ± 0.27
8,V43M,0.55 ± 0.12
9,V43D,-0.271 ± 0.37
10,V43E,-0.064 ± 0.33
11,V43N,0.239 ± 0.17
12,V43G,-0.224 ± 0.094
13,V43K,0.542 ± 0.26
14,C73G,-0.638 ± 0.12
15,C73W,-0.751 ± 0.21
16,C73E,-0.885 ± 0.18
17,C73V,-0.728 ± 0.26
18,K38W,-0.136 ± 0.042
19,K38E,-0.014 ± 0.041
20,K38L,-0.088 ± 0.043
21,P67L,-0.354 ± 0.14
22,P67S,0.122 ± 0.12
23,P67G,0.07 ± 0.1
24,P67M,0.952 ± 0.092

row,Variant,abundance fitness
1,P67W,-0.088 ± 0.19
2,P67V,0.27 ± 0.12
3,M45G,-0.502 ± 0.085
4,M45C,-0.407 ± 0.26
5,M45R,-0.062 ± 0.073
6,M45E,-0.051 ± 0.13
7,D65M,0.006 ± 0.13
8,D65S,-0.188 ± 0.1
9,D65F,-0.598 ± 0.2
10,D65C,-0.284 ± 0.4
11,D65V,-0.232 ± 0.1
12,D65E,0.142 ± 0.11
13,D65A,-0.226 ± 0.12
14,F25D,-0.031 ± 0.046
15,F25G,-0.028 ± 0.032
16,F25A,0.033 ± 0.03
17,F25E,-0.049 ± 0.035
18,Q5V,-0.077 ± 0.029
19,Q5K,-0.194 ± 0.27
20,Q5T,-0.113 ± 0.043
21,Q5P,-0.204 ± 0.061
22,Q5I,-0.156 ± 0.064
23,I54L,0.128 ± 0.078
24,I54W,-0.079 ± 0.11

row,Variant,abundance fitness
1,I54C,0.675 ± 0.26
2,I54T,0.104 ± 0.17
3,E35D,-0.047 ± 0.064
4,E35L,-0.096 ± 0.042
5,K30G,-0.032 ± 0.029
6,K30E,-0.037 ± 0.037
7,K53S,-0.431 ± 0.15
8,K53V,-0.127 ± 0.11
9,K53M,-0.189 ± 0.21
10,C49R,-0.242 ± 0.089
11,C49W,-1.05 ± 0.22
12,C49A,-0.604 ± 0.11
13,C49G,-0.54 ± 0.083
14,C49V,-1.07 ± 0.17
15,C49K,-0.433 ± 0.32
16,C49S,-0.489 ± 0.13
17,K39S,0.003 ± 0.043
18,K39M,-0.087 ± 0.06
19,K39R,-0.004 ± 0.029
20,A44K,0.117 ± 0.14
21,A44G,-0.132 ± 0.076
22,Y36R,-0.26 ± 0.028
23,Y36M,-0.093 ± 0.056
24,Y36L,-0.181 ± 0.032

row,Variant,abundance fitness
1,K50N,-0.23 ± 0.17
2,K50M,-0.685 ± 0.27
3,K50R,-0.172 ± 0.074
4,K50V,-0.96 ± 0.13
5,K50E,-0.363 ± 0.14
6,K50G,-0.228 ± 0.076
7,S33L,-0.089 ± 0.05
8,S33D,-0.217 ± 0.049
9,S33A,-0.032 ± 0.031
10,S33C,-0.077 ± 0.05
11,S33T,-0.127 ± 0.056
12,K74S,-0.705 ± 0.2
13,K74T,-0.017 ± 0.3
14,K74V,-0.674 ± 0.14
15,P15L,-0.483 ± 0.05
16,P15D,-0.03 ± 0.041
17,P15H,-0.213 ± 0.039
18,P15K,-0.038 ± 0.039
19,P15R,-0.119 ± 0.029
20,P15Y,-0.651 ± 0.2
21,A12M,-0.105 ± 0.047
22,A12S,-0.072 ± 0.041
23,A12W,-0.134 ± 0.036
24,A12H,-0.132 ± 0.074

row,Variant,abundance fitness
1,F61K,-0.027 ± 0.18
2,F61D,0.56 ± 0.09
3,K37A,0.004 ± 0.028
4,N40R,-0.045 ± 0.06
5,N40Y,-0.24 ± 0.095
6,N40K,-0.105 ± 0.059
7,C46P,-0.248 ± 0.2
8,Y20Q,-0.01 ± 0.045
9,Y20M,-0.062 ± 0.056
10,Y20F,0.054 ± 0.065
11,Y20K,-0.123 ± 0.046
12,Y20I,0.031 ± 0.1
13,Y20L,0 ± 0.039
14,Y20C,-0.023 ± 0.082
15,T58Y,0.177 ± 0.41
16,T58W,-0.669 ± 0.28
17,H9E,-0.028 ± 0.035
18,H9R,0.037 ± 0.029
19,H9W,-0.069 ± 0.038
20,H9M,0.022 ± 0.052
21,H9F,-0.153 ± 0.06
22,H9T,0.042 ± 0.045
23,K56R,-0.423 ± 0.089
24,K56P,0.182 ± 0.12

row,Variant,abundance fitness
1,K56L,-0.382 ± 0.16
2,K3H,-0.156 ± 0.096
3,K3S,0.021 ± 0.042
4,K3F,-0.116 ± 0.055
5,K3G,-0.078 ± 0.029
6,K3C,-0.163 ± 0.053
7,K3Y,-0.132 ± 0.056
8,K3L,-0.073 ± 0.036
9,K3R,-0.075 ± 0.032
10,K3E,0.001 ± 0.036
11,E16W,-0.13 ± 0.031
12,E16T,-0.037 ± 0.046
13,E16R,-0.102 ± 0.029
14,E16M,-0.14 ± 0.044
15,E16D,-0.169 ± 0.12
16,E16S,-0.146 ± 0.043
17,E16A,-0.091 ± 0.031
18,E16Y,-0.194 ± 0.2
19,L51H,0.513 ± 0.17
20,L51T,0.551 ± 0.1
21,L51W,-0.806 ± 0.13
22,L51K,0.414 ± 0.11
23,L51D,0.345 ± 0.32
